Laboratory results: patent US20240368249A1 (INTERVET, published 2024)

Columns and labels:
canine IL-4 [1] = molecular target: T1, canine IL-4 (canine, UniProt O77762 25-132, biotin-labeled in the OCTET assay); test: cell-based or functional assay
T1 sequence (looked up): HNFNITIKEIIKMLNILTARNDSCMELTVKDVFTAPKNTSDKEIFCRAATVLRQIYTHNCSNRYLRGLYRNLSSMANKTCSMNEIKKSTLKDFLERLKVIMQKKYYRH

canine IL-4 [2] = molecular target: T1, canine IL-4; test: BLI (OCTET HTX), biotin-cIL-4 on SA biosensors
Description: (§1) The binding constants for the cFc fusion proteins provided in Tables 3 and 4 below, were determined using OCTET® HTX. All kinetics measurements were performed by OCTET® HTX using SA® biosensors and DATA ACQUISITION® 12.0 software. 10 μg/mL of biotin-labeled antigen, either canine IL-4 (cIL-4) or canine IL-13 (cIL-13) were loaded onto the SA® biosensors for 120 seconds. Next, the biosensors were placed into 1×pH 7.0 TBS/Casein buffer for 60 seconds for the blocking phase. For the association phase, antigen loaded biosensors were placed into 2-fold serial dilutions from 1 μM down to 15.6 nM of the wild-type, the bispecific, or the FcRn-mutant receptor Fc-fusions that recognized the cIL-4 or cIL-13 antigen in 1×pH 7.0 TBS/Casein buffer for 30 seconds. The last well was buffer alone and that sensor was used for reference sensor subtraction. Finally, the biosensors were placed into 1×pH 7.0 TBS/Casein buffer for 120 seconds for the dissociation phase. The results were then analyzed using Data Analysis 12.0 software and the curves were fitted using a 1:1 binding model.

canine IL-13 = molecular target: T2, canine IL-13 (canine, UniProt Q9N0W9 19-131, limits assumed, biotin-labeled in the OCTET assay); test: BLI (OCTET HTX), biotin-cIL-13 on SA biosensors
T2 construct: also called cIL-13; canine Interleukin-13
T2 sequence (looked up): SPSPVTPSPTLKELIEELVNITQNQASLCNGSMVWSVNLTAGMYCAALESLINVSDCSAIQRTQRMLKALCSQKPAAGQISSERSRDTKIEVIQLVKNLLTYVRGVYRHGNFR
Description: as §1

canine IL-31Rα (canine) = test: ELISA, plate coated with cIL-31Rα at 1 µg/mL, detection with HRP anti-dog IgG Fc, OD450/540nm

B1: cIL-4Rα-13Rα2_ZW1-cFc (Fc fusion)
chain 1: VKVLHEPSCFSDYISTSVCQWKMDHPTNCSAELRLSYQLDFMGSENHTCVPENREDSVCVCSMPIDDAVEADVYQLDLWAGQQLLWSGSFQPSKHVKPRTPGNLTVHPNISHTWLLMWTNPYPTENHLHSELTYMVNVSNDNDPEDFKVYNVTYMGPTLRLAASTLKSGASYSARVRAWAQTYNSTWSDWSPSTTWLNYYEPWEQHLPPKRENGRVPRPPDCPKCPAPEMLGGPSVFIFPPKPKDTLLIARTPEVTCVVVDLDPEDPEVQISWFVDGKQMQTAKTQPREEQFNGTYRVVSVLPIGHQDWLKGKQFTCKVNNKALPSPIERTISKARGQAHQPSVYVYPPSREELSKNTVSLTCLIKDFFPPDIDVEWQSNGQQEPESKYRTTPPQLDEDGSYALVSKLSVDKSRWQRGDTFICAVMHEALHNHYTQESLSHSPGK
chain 2: SMLSNAEIKVNPPQDFEIVDPGYLGYLSLQWQPPLFPDNFKECTIEYELKYRNIDSENWKTIITKNLHYKDGFDLNKGIEAKINTLLPAQCTNGSEVRSSWAETTYWTSPQGNRETKIQDMDCVYYNWQYLVCSWKPGMGVHFDTNYQLFYWYEGLDHSAECTDYIKVNGKNMGCRFPYLESSDYKDFYICVNGSSESQPIRPSYFIFQLQNIVKPMPPDYLSLTVKNSEEINLKWNMPKGPIPAKCFIYEIEFTEDGTTWVTTTVENEIQITRTSNESQKLCFLVRSKVNIYCSDDGIWSEWSDEQCWKGDIWKETPKRENGRVPRPPDCPKCPAPEMLGGPSVFIFPPKPKDTLLIARTPEVTCVVVDLDPEDPEVQISWFVDGKQMQTAKTQPREEQFNGTYRVVSVLPIGHQDWLKGKQFTCKVNNKALPSPIERTISKARGQAHQPSVYVLPPSREELSKNTVSLLCLIKDFFPPDIDVEWQSNGQQEPESKYLTWPPQLDEDGSYFLYSKLSVDKSRWQRGDTFICAVMHEALHNHYTQESLSHSPGK
IC50 for inhibition of cIL-4 mediated STAT6 phosphorylation in DH82 cells, against that of cIL4Rα-cFc or cIL4Rα-IL13Rα1_ZW1-cFc (canine IL-4 [1]): > 3 orders of magnitude higher

B2: cIL-4Rα-13Rα1_ZW1-cFc (Fc fusion)
chain 1: VKVLHEPSCFSDYISTSVCQWKMDHPTNCSAELRLSYQLDFMGSENHTCVPENREDSVCVCSMPIDDAVEADVYQLDLWAGQQLLWSGSFQPSKHVKPRTPGNLTVHPNISHTWLLMWTNPYPTENHLHSELTYMVNVSNDNDPEDFKVYNVTYMGPTLRLAASTLKSGASYSARVRAWAQTYNSTWSDWSPSTTWLNYYEPWEQHLPPKRENGRVPRPPDCPKCPAPEMLGGPSVFIFPPKPKDTLLIARTPEVTCVVVDLDPEDPEVQISWFVDGKQMQTAKTQPREEQFNGTYRVVSVLPIGHQDWLKGKQFTCKVNNKALPSPIERTISKARGQAHQPSVYVYPPSREELSKNTVSLTCLIKDFFPPDIDVEWQSNGQQEPESKYRTTPPQLDEDGSYALVSKLSVDKSRWQRGDTFICAVMHEALHNHYTQESLSHSPGK
chain 2: GGVAAPTETQPPVTNLSVSVENLCTVIWTWDPPEGASPNCTLRYFSHFDNKQDKKIAPETHRSKEVPLNERICLQVGSQCSTNESDNPSILVEKCTPPPEGDPESAVTELQCVWHNLSYMKCTWLPGRNTSPDTNYTLYYWHSSLGKILQCEDIYREGQHIGCSFALTNLKDSSFEQHSVQIVVKDNAGKIRPSFNIVPLTSHVKPDPPHIKRLFFQNGNLYVQWKNPQNFYSRCLSYQVEVNNSQTETNDIFYVEEAKCQNSEFEGNLEGTICFMVPGVLPDTLNTVRIRVRTNKLCYEDDKLWSNWSQAMSIGENTDPTPKRENGRVPRPPDCPKCPAPEMLGGPSVFIFPPKPKDTLLIARTPEVTCVVVDLDPEDPEVQISWFVDGKQMQTAKTQPREEQFNGTYRVVSVLPIGHQDWLKGKQFTCKVNNKALPSPIERTISKARGQAHQPSVYVLPPSREELSKNTVSLLCLIKDFFPPDIDVEWQSNGQQEPESKYLTWPPQLDEDGSYFLYSKLSVDKSRWQRGDTFICAVMHEALHNHYTQESLSHSPGK
notes: Bispecific heterodimer; also called cIL4Rα-IL13Rα1_ZW1-cFc; cIL-4Rα-IL-13Rα1_ZW1-cFc
fold change of KD against the unmodified cIL-4Rα-cFc homodimer (canine IL-4 [2]): ~10000 fold higher
fold tighter binding against the unmodified IL-13Rα1-cFc (canine IL-13): 8 fold tighter

B3: Caninized 10A12 H2L6 (antibody, V domains shown)
VH: EVQLVESGGDLVKPGGSLRLSCAASGFTFSNYYMAWVRQAPGKGLQWVASISTGGGNTYYRDSVKGRFTISRDNAKNTLYLQMNSLRAEDTAMYYCARHGTLYFDYWGQGTLVTVSS
VL: QPVLTQPPSLSASLGTTARLTCERSSGDIGDSYVSWYQQKPGSPPRDVIYVDDQRPSEVSKSFSGSKDTSANAGLLLISGLQPEDEADYFCQSYDSNIDGPVFGGGTHLTVLG
EC50 (canine IL-31Rα (canine)): 0.34 ng/mL
